Measured values taken from patent publication US20030059769.

What was measured:
[1] = target: T1, L-selectin (LS-Rg) (Homo sapiens) (UniProt P14151); assay: filter
T1 sequence: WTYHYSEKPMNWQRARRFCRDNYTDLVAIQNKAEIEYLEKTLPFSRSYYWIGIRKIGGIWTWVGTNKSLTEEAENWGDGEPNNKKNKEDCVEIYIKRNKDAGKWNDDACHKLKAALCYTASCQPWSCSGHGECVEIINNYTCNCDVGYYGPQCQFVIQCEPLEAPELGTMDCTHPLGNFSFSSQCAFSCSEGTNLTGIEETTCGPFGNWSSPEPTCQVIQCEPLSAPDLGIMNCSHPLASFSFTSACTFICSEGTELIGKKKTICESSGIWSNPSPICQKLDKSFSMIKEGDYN

[2] = target: T2, Wheat germ agglutinin (WGA) (Triticum vulgare) (UniProt P10968); assay: filter
T2 sequence: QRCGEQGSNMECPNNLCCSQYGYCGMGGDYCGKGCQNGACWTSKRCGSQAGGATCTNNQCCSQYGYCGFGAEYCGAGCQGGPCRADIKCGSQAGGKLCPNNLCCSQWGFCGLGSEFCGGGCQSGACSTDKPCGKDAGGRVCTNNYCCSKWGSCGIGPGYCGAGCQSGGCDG

CD22beta (CD22b-Rg) = CD22beta (CD22b-Rg) (UniProt P20273); assay: filter
[3] = target: T3, P-selectin (PS-Rg) (Homo sapiens) (UniProt P16109); assay: filter
T3 sequence: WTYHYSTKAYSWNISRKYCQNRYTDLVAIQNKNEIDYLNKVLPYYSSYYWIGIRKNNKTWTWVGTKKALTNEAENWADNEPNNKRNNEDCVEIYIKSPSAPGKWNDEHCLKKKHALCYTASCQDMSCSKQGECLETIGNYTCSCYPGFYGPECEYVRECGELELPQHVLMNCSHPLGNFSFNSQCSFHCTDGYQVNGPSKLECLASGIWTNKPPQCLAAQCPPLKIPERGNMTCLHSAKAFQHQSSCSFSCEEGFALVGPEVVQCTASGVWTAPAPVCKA

[4] = target: T4, E-selectin (ES-Rg) (Homo sapiens) (UniProt P16581); assay: filter
T4 sequence: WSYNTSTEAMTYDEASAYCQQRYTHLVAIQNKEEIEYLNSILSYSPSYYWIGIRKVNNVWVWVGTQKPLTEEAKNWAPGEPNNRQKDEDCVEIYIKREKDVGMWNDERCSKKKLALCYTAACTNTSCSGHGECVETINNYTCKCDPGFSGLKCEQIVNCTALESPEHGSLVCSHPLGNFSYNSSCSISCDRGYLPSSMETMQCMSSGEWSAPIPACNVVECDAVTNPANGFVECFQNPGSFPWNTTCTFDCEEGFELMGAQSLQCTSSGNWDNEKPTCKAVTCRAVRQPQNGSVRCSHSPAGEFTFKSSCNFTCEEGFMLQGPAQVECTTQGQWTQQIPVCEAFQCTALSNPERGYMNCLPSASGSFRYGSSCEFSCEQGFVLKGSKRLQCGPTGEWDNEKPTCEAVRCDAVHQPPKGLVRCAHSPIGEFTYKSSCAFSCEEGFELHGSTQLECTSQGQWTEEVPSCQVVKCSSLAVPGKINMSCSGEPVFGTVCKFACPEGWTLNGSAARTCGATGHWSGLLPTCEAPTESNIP

[5] = tested on: Datura stramonium lectin (Datura stramonium); assay: filter
[6] = target: T5, soluble L-selectin (Homo sapiens) (UniProt P14151); assay: filter; settings: 2'-F C and U, 37 C
T5 sequence: T1 sequence

[7] = target: T1, L-selectin (LS-Rg) (Homo sapiens); assay: inhibition; settings: 2'-NH2 C and U; sialyl-LewisX competition ELISA
[8] = target: T6, L-selectin on PBMC / lymphocytes (Homo sapiens) (UniProt P14151); settings: 2'-NH2 on all C and U; PBMC binding on ice; competed by DREG-56
T6 sequence: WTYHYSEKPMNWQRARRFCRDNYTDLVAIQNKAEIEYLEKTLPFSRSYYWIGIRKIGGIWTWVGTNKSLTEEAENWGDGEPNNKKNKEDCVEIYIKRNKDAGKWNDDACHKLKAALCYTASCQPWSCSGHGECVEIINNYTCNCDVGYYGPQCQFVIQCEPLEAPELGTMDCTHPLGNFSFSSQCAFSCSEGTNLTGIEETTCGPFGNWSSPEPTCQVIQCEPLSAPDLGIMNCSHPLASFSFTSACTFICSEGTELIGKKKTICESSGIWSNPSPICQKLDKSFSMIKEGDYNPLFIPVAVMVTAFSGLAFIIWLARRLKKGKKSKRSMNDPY

[9] = 2'-NH2 C and U, <5% bound at 1 uM
[10] = 2'-NH2 C and U, HBSS, room temperature
[11] = 2'-NH2 on all C and U, 4 C, HSMC

CTACCTACGATCTGACTAGCCGAGGATCTGATACTTATTGAACATAMCCGCACNCAGGCTTGCTTACTCTCATGTAGTTCC [LD102]
Kd ([1]; 37 C): 7.9 nM

CTACCTACGATCTGACTAGCCGAGGTAGTCGTTATAGGGTRCRCACGACACAAARCRGTRGCTTACTCTCATGTAGTTCC [LD127]
Kd ([2]; <3% at […]): > 100 µM | Kd (CD22beta (CD22b-Rg); <1% at 700 nM): > 100 µM | Kd ([3]; room temperature): 780 nM | Kd ([1]; room temp, 890 pM at 37 C): 1 nM | Kd ([4]; room temperature): 1.3 µM

GGGAAAAGCGAAUCAUACACAAGAAAGGGAUGGGAUUGGGACGAGCGGCCAAGACUCGGCGGGAACGAAGGGUCCGCUCCGCCAGAGACCAACCGAGAA [WGA ligand 6.8]
Kd [5, 9]: > 20 µM

GGGAAAAGCGAAUCAUACACAAGACAGCGGCGGAGUCAGUGAAAGCGUGGGGGGYGCGGGAGGUCUACCCUGACGCUCCGCCAGAGACCAACCGAGAA [WGA ligand 6.14]
Kd ([2]; 2'-NH2 on all C and U, <5% bound at 1 uM WGA, estimate): > 20 µM

GGGAAAAGCGAAUCAUACACAAGACGGCUGUGUGGUGUUGGAGCGUCAUAGUAGGAGUCGUCACGAACCAAGGCGCUCCGCCAGAGACCAACCGAGAA [WGA ligand 11.24]
Kd [5, 9]: > 20 µM

GGGAAAAGCGAAUCAUACACAAGACUGGCAAGRAGUGCGUGAGGGUACGUUAGGGGUGUUUGGGCCGAUCGCAUGCUCCGCCAGAGACCAACCGAGAA [WGA ligand 11.7]
Kd ([2]; 2'-NH2 on all C and U, HBSS, room temperature): 0.016 µM

GGGAAAAGCGAAUCAUACACAAGAGAGGUGRAUGGGAGAGUGGAGCCCGGGUGACUCGAGGAUUCCCGUGCUCCGCCAGAGACCAACCGAGAA [WGA ligand 11.3]
Kd [2, 10]: 0.41 µM

GGGAAAAGCGAAUCAUACACAAGAGUAGGAGGUUCCAUCACCAGGACUCGGCGGGAACGGAAGGUGAUGSGCUCCGCCAGAGACCAACCGAGAA [WGA ligand 11.35]
Kd [2, 10]: 0.09 µM

GGGAAAAGCGAAUCAUACACAAGANNNNNNNNNNNNNNNNNNNNNNNNNNNNNNNNNNNNNNNNNNNNNNNNNNGCUCCGCCAGAGACCAACCGAGAA [50N9 random 2'-NH2 RNA]
Kd ([2]; 2'-NH2 on all C and U, undetectable at 36 uM WGA monomer, p130 prints >4 uM): > 4000 µM

GGGAAAAGCGAAUCAUACACAAGAUUGGUCGUACUGGACAGAGCCGUGGUAGAGGGAUUGGGACAAAGUGUCAGCUCCGCCAGAGACCAACCGAGAA [WGA ligand 11.20]
Kd ([5]; 2'-NH2 on all C and U, specificity control): 11.2 µM

GGGAGACAAGAAAUAAACNCUCAAGCCCCAAACGCAAGUGAGCAUCCGCAACAGGGAAGAAGACAGAUGAAUGAUUCGACAGGAGGCUCACAACAGGC [PA466]
Kd ([3]; 2'-NH2 C and U, 37 C): 0.43 nM

GGGAGACAAGAAUAAACGCUCAAAAGGUGCCGGGUUGGAGGGGUAGCAAGAAAUGGCUAGGGCGCASGAUUCGACAGGNGGCUCACAACAGGC [PA339]
Kd ([3]; 2'-NH2 C and U, 37 C): 13.5 nM

GGGAGACAAGAAUAAACGCUCAAAUCAACUAAACAACGCAGUCACGAGAACGACCGGKCUGACUCCGAAAGUUCGACAGGAGGCUCACAACAGGC [PA448]
Kd ([3]; 2'-NH2 on all C and U, 37 C): 5 nM

GGGAGACAAGAAUAAACGCUCAACGAGUUCACAUGGGAGCAAUCUCCGAAUAAACAACACGCKAKCGCAAAUUCGACAGGAGGCUCACAACAGGC [PF424]
Kd ([3]; 2'-F C and U, HSMC, 37 C): 0.0365 nM

GGGAGACAAGAAUAAACGCUCAAGUACRCAGUGAGCAGAAGCAGAGAGACUUGGGAUGGGAUGAAAUGGKCUUCGACAGGAGGCUCACAACAGGC [PA467]
Kd ([3]; 2'-NH2 C and U, 37 C): 24 nM

GGGAGACAAGAAUAAACGCUCAANNNGAGGAAGGGCACGCAAGGAAACAAAACACAAAGCAGAAGUAGUAAGAUUCGACAGGAGGCUCACAACAGGC [PA465]
Kd ([3]; 2'-NH2 C and U, 37 C): > 50 nM

GGGAGACAAGAAUAAACNCUCAACGAAAUAGAAGGAACAGAAGAAUGGBGAWGNGGGAAAUGGCAACGAAUUCGACAGGNGGCUCACAACAGGC [PA321]
Kd ([3]; 2'-NH2 C and U, 37 C): 8 nM

GGGAGACAAGAAUAAACNCUCAAGCCCCAAGCAAGUGAGCAUCCGCAACAGGGAAGAAGACAGACGAGUGAUUCGACAGGAGGCUCACAACAGGC [PA473]
Kd ([3]; 2'-NH2 C and U, 37 C): 0.36 nM

GGGAGGACGAUGCGGAAGUGAAGCUAAAGCGGAGGGCCAUUCAGUUUCNCACCACAGACGACUCGCCCGA [F14.2]
Kd (CD22beta (CD22b-Rg); 2'-NH2 C and U, <5% bound, 4 C): > 20 µM | Kd ([3]; 2'-NH2 C and U, HSMC, 4 C): 450 nM | Kd ([1]; 2'-NH2 on all C and U, 4 C, 7.2 nM at room temp): 1.8 nM | Kd ([4]; 2'-NH2 C and U, HSMC, 4 C): 1.9 µM

GGGAGGACGAUGCGGAAGUGAAGCUAAAGSGGAGGGCCACUCAGAAACGCACCACAGACGACUCGCCCGA [F14.13]
Kd ([1]; 2'-NH2 C and U, 4 C, biphasic (0.74), low affinity 270 nM): 1.3 nM

GGGAGGACGAUGCGGACGUGUGUAUCRARUUUUCCGCUGUUUGUGCAGACGACUCGCCCGA [LF1718]
Kd [6]: 0.0064 µM

GGGAGGACGAUGCGGAUAYUCAGCUYGUGUKUUUUCDAUCUUCCCCAGACGACUCGCCCGA [LF1707]
Kd [6]: 0.00016 µM

GGGAGGACGAUGCGGCCGUACAUGGUAARCCUCGAAGGAUUCCCGGGAUGAUCCCCAGACGACUCGCCCGA [F14.27]
Kd ([1]; 2'-NH2 C and U, HSMC, 4 C): 145 nM

GGGAGGACGAUGCGGGAGGAAUGGACWGCGUAUAUCGAGUUGCCUCAGACGACUCGCCCGA [LF1713]
Kd ([6]; table prints SEQ 338): 0.00022 µM

GGGAGGACGAUGCGGNNNNNNNNNNNNNNNNNNNNNNNNNNNNNNNNNNNNNNNNCAGACGACUCGCCCGA [40N7 random 2'-NH2 RNA]
Kd ([1]; 2'-NH2 on all C and U, random pool, estimate): 10000 nM

GGGAGGACGAUGCGGUAACAACAAUCAAGGCGGGUUYACCGCCCCAGUAUGAGUACAGACGACUCGCCCGA [F14.12]
IC50 [7]: 0.01 µM | Kd (CD22beta (CD22b-Rg); 2'-NH2 on all C and U, <5% bound at 660 nM protein): > 20 µM | Kd [3, 11]: 910 nM | Kd ([1]; 2'-NH2 on all C and U, 4 C, HSMC (Ca, Mg), Table 9 prints 5.8 pM (4 C), 1.7 nM room temp): 0.06 nM | Kd [4, 11]: 0.047 µM | Kd [8]: 0.0013 µM

GGGAGGACGAUGCGGUCCAGAGCGUGAAGAUCAACGUCCCGGNGUCGAAGACAGACGACUCGCCCGA [F14.70]
Kd (CD22beta (CD22b-Rg); 2'-NH2 C and U, <5% bound, 4 C): > 20 µM | Kd ([1]; 2'-NH2 on all C and U, 4 C, biphasic, fraction 0.75, second Kd 254 nM): 2 nM | Kd ([4]; 2'-NH2 C and U, HSMC, 4 C): 5.9 µM

GGGAGGACGAUGCGGUUAGCCUACACUCUAGGUUCAGUUUUCGAAUCUUCCACCGCWGACGACUCGCCCGA [LF1618]
Kd ([1]; 2'-F on all C and U, 37 C): 9.6 nM
